This note sets out measurements from patent US20240392020A1 (JIANGSU HENGRUI PHARMACEUTICALS, published 2024).

Usually Kd stands for the concentration at which binding is half-saturated. The term koff denotes the rate constant with which the complex falls apart. The low end stands for a long-lived complex, the high end for a short-lived complex. Usually kon stands for a measure of how fast the partners come together.

Experiment [1] has as its target T1, human PDL1-his (human, UniProt Q9NZQ7 19-239).
T1 construct: bought; also called hPDL1
In words: SPR Biacore T200, antibody captured, hPDL1 injected after saturation with TIGIT. Background: Surface plasmon resonance follows binding to a sensor surface in real time, without labels.

The target of experiment [2] is T2, human TIGIT-his (human, UniProt Q495A1 22-141, limits assumed).
T2 construct: bought; also called hTIGIT
T2 sequence (looked up): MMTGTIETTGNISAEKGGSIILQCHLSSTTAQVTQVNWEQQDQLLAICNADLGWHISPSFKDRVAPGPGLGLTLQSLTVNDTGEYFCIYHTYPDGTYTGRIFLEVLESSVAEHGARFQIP
In words: SPR Biacore T200, antibody captured, TIGIT injected after saturation with hPDL1.

Experiment [3] deals with T2, human TIGIT-his. In words: SPR Biacore T200, antibody captured on Protein A chip.
Experiment [4] deals with T1, human PDL1-his. The description is as above.
The target of experiment [5] is T3, hBAFF (human, UniProt Q9Y275 134-285).
T3 construct: bought
Briefly: SPR Biacore T200, BU5 captured, hBAFF injected after saturation with hP40.

In experiment [6] the target is T3, hBAFF. Briefly: SPR Biacore T200, antibody captured on Protein A chip.
Experiment [7] concerns the target T4, hP40 (human, UniProt P29460 23-328).
T4 construct: bought
T4 sequence (looked up): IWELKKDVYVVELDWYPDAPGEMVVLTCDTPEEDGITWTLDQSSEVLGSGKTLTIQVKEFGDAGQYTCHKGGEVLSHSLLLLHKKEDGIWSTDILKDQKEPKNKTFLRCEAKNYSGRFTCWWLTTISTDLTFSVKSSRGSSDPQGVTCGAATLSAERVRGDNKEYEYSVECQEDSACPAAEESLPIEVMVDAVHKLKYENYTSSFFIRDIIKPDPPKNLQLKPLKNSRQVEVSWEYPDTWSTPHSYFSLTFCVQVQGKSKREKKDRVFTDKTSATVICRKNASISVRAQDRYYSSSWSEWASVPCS
The description is as above.

For experiment [8], the target named is T4, hP40. Briefly: SPR Biacore T200, BU5 captured, hP40 injected after saturation with hBAFF.
Experiment [9] has as its target T5, HJ-3-H1 (heavy chain of H0, knob, CH1 replaced with T.10-L1).
T5 construct: single antibody chain, co-expressed
In words: co-expression of three chains, mass spectrometry.

Another experiment deals with T6, HJ-2-L2.
T6 construct: also called chain 3 of HJ-2
Briefly: mass spectrometry of the product of four co-transfected chains of HJ-2; mispairing of heavy chain 2 with light chain 3.

The target of a further experiment is T7, HJ-4-L2.
T7 construct: also called chain 3 of HJ-4
In words: mass spectrometry of the product of four co-transfected chains of HJ-4; mispairing of heavy chain 2 with light chain 3.

The target of another experiment is T8, Heavy chain of D0 (Homo sapiens (Human), UniProt P0DOX5 1-449 = IgG part).
T8 construct: single antibody chain, co-expressed
Briefly: co-expression in HEK293E cells, LC-MS for the mispaired molecule.

Experiment [10] has as its target T9, Heavy chain of B0 (with a hole modification).
T9 construct: single antibody chain, co-expressed; also called B-H1 of B/U-2
In words: co-expression (B/U-2), mass spectrometry.

For experiment [11], the target named is T10, Heavy chain of U0 (with a knob modification).
T10 construct: single antibody chain, co-expressed; also called B-H2
Briefly: co-expression (B/U-2), mass spectrometry.

For another experiment, the target named is T11, HJ-3-L1.
T11 construct: also called chain 3 of HJ-3
Briefly: mass spectrometry of the product of four co-transfected chains of HJ-3; mispairing of heavy chain 2 with light chain 3.

T1 sequence (Q9NZQ7 19-239 limits assumed): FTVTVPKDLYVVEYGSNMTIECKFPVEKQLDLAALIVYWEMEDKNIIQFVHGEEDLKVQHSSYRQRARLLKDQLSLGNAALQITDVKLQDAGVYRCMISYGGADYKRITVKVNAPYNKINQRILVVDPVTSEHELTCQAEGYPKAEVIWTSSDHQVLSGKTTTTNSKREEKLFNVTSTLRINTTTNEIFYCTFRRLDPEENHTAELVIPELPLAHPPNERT
T9 sequence (heavy, as listed by the source): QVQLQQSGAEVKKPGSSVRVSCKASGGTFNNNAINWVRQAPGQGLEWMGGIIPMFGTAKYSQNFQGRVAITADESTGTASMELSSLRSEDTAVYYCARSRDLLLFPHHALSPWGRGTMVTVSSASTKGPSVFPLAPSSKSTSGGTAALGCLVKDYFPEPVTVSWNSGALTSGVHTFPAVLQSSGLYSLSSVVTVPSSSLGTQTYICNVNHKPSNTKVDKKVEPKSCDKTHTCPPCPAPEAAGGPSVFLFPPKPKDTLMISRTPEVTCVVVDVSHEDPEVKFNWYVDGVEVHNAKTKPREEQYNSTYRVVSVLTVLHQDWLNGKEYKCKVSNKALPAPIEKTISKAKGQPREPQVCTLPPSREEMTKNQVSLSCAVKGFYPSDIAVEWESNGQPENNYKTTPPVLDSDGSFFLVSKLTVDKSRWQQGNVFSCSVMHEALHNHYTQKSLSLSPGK
T6 sequence (light, as listed by the source limits assumed): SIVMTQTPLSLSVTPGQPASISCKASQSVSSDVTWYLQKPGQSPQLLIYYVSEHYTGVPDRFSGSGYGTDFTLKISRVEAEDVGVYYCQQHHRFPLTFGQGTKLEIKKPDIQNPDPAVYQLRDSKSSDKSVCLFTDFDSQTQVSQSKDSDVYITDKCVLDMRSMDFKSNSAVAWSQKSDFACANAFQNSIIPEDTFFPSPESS
T10 sequence (heavy, as listed by the source): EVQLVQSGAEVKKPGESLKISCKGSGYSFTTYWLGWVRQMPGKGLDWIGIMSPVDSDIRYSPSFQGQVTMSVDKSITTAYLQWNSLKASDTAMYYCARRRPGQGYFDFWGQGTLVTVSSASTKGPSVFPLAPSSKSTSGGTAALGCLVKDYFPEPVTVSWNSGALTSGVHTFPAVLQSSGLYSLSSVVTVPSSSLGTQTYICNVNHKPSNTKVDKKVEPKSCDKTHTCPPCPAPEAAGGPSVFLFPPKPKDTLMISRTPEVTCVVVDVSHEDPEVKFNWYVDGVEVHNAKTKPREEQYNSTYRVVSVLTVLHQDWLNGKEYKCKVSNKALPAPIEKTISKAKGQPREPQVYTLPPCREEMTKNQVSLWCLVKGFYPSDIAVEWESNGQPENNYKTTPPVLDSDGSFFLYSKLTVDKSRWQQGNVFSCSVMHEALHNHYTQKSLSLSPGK

B1: P-O-T (bispecific antibody, human IgG1, kappa)
heavy: not shown
light 1: DIVLTQSPASLAVSPGQRATITCRASESVSIHGTHLMHWYQQKPGQPPKLLIYAASKLESGVPARFSGSGSGTDFTLTINPVEAEDTANYYCQQSFEDPLTFGQGTKLEIKGGGGSGIPPKIECLPIDISIDEGKVLTVASAFTGEPTPEVTWSTGGRKIHSQEQGRFHIENTDDLTTLIIKDVQKQDGGLYTLTLRNEFGSDSATVNIHIRSI
light 2: DIQMTQSPSSLSASVGDRVTITCRASENIYSYLAWYQQKPGKSPKLLIYNARTLAEGVPSRFSGSGSGTDFTLTISSLQPEDFATYYCQYHSGSPLPFGGGTKVEIKRTVAAPSVFIFPPSDEQLKSGTASVVCLLNNFYPREAKVQWKVDNALQSGNSQESVTEQDSKDSTYSLSSTLTLSKADYEKHKVYACEVTHQGLSSPVTKSFNRGEC
notes: also called anti-PDL1-TIGIT bispecific antibody in a (FabV)2-IgG form; PDL1-TIGIT bispecific antibody
Turning to B1, the Kd is 30.3 pM with human PDL1-his [1], 95.4 pM with human TIGIT-his [2], 97 pM with human TIGIT-his [3] and 25.7 pM with human PDL1-his [4]. For the same molecule, the koff was 8.12e-05 s⁻¹ with human PDL1-his [1], 0.00012 s⁻¹ with human TIGIT-his [2], 0.000123 s⁻¹ with human TIGIT-his [3] and 9.53e-05 s⁻¹ in the experiment with human PDL1-his [4]. In addition, the kon was found to be 2.68e+06 M⁻¹ s⁻¹ with human PDL1-his [1], 1.26e+06 M⁻¹ s⁻¹ with human TIGIT-his [2], 1.27e+06 M⁻¹ s⁻¹ in the experiment with human TIGIT-his [3] and 3.71e+06 M⁻¹ s⁻¹ in the experiment with human PDL1-his [4].

B2: BU5 (bispecific antibody, human IgG1, kappa, L234A L235A)
heavy 1: QVQLQQSGAEVKKPGSSVRVSCKASGGTFNNNAINWVRQAPGQGLEWMGGIIPMFGTAKYSQNFQGRVAITADESTGTASMELSSLRSEDTAVYYCARSRDLLLFPHHALSPWGRGTMVTVSSGGGGSGIPPKIECLPIDISIDEGKVLTVASAFTGEPTPEVTWSTGGRKIHSQEQGRFHIENTDDLTTLIIKDVQKQDGGLYTLTLRNEFGSDSATVNIHIRSIDKTHTCPPCPAPEAAGGPSVFLFPPKPKDTLMISRTPEVTCVVVDVSHEDPEVKFNWYVDGVEVHNAKTKPREEQYNSTYRVVSVLTVLHQDWLNGKEYKCKVSNKALPAPIEKTISKAKGQPREPQVCTLPPSREEMTKNQVSLSCAVKGFYPSDIAVEWESNGQPENNYKTTPPVLDSDGSFFLVSKLTVDKSRWQQGNVFSCSVMHEALHNHYTQKSLSLSPGK
light 1: SSELTQDPAVSVALGQTVRVTCQGDSLRSYYASWYQQKPGQAPVLVIYGKNNRPSGIPDRFSGSSSGNTASLTITGAQAEDEADYYCSSRDSSGNHWVFGGGTELTVLGGGGSSGAPRFLTRPLAFVVSVGKDATLSSQIVGNPTPQVSWEKDKQPVTAGARFRLAQDGDLYRLKILDLQLSDSGQYVSRARNAIGEAFACLGLQVDAEA
heavy 2: not shown
light 2: not shown
As for B2, the dissociation constant (Kd) with hBAFF [5] came to 537 pM; in the experiment with hBAFF [6], 393 pM; in the experiment with hP40 [7], 66.4 pM; with hP40 [8], 66.1 pM. For the same molecule, the koff was 8.44e-05 s⁻¹ with hBAFF [5], 7.62e-05 s⁻¹ with hBAFF [6], 0.000102 s⁻¹ in the experiment with hP40 [7] and 0.000104 s⁻¹ in the experiment with hP40 [8]. The kon came out at 157000 M⁻¹ s⁻¹ with hBAFF [5], 194000 M⁻¹ s⁻¹ in the experiment with hBAFF [6], 1.54e+06 M⁻¹ s⁻¹ in the experiment with hP40 [7] and 1.57e+06 M⁻¹ s⁻¹ in the experiment with hP40 [8].

B3: Light chain of J1 (other)
light: SIVMTQTPLSLSVTPGQPASISCKASQSVSSDVTWYLQKPGQSPQLLIYYVSEHYTGVPDRFSGSGYGTDFTLKISRVEAEDVGVYYCQQHHRFPLTFGQGTKLEIKRTVAAPSVFIFPPSDEQLKSGTASVVCLLNNFYPREAKVQWKVDNALQSGNSQESVTEQDSKDSTYSLSSTLTLSKADYEKHKVYACEVTHQGLSSPVTKSFNRGEC
notes: single antibody chain, co-expressed; also called HJ-1-L2; HJ-3-L2
On to B3, for which the binding result in [9] is given as “no binding”.

B4: HJ-2-H1 (other)
heavy: EVQLVESGGGLVQPGGSLRLSCAASGFTFSHYYMAWVRQAPGKGLEWVTSISYEGDITYYGDSVKGRFTISRDNSKNTLYLQMNSLRAEDTATYYCASQTLRESFDYWGQGTLVTVSSASTKGPSVFPLAPSSKSTSGGTAALGCLVKDYFPEPVTVSWNSGALTSGVHTFPAVLQSSGLYSLSSVVTVPSSSLGTQTYICNVNHKPSNTKVDKKVEPKSCDKTHTCPPCPAPEAAGGPSVFLFPPKPKDTLMISRTPEVTCVVVDVSHEDPEVKFNWYVDGVEVHNAKTKPREEQYNSTYRVVSVLTVLHQDWLNGKEYKCKVSNKALPAPIEKTISKAKGQPREPQVCTLPPSREEMTKNQVSLSCAVKGFYPSDIAVEWESNGQPENNYKTTPPVLDSDGSFFLVSKLTVDKSRWQQGNVFSCSVMHEALHNHYTQKSLSLSPGKDYKDDDDK
notes: also called chain 2 of HJ-2
For the molecule B4, the binding result in the experiment with HJ-2-L2 is “no binding”.

B5: HJ-4-H1 (other)
heavy: B4 heavy
notes: also called chain 2 of HJ-4
Regarding B5, the binding result with HJ-4-L2 was “no binding”.

B6: Light chain of I3 (other)
light: DIQMTQSPSSLSASVGDRVTITCRASQSISNNLNWYQQKPGKAPKLLIYYTSRFHSGVPSRFSGSGSGTDFTFTISSLQPEDIATYYCQQEHTLPYTFGQGTKLEIKSGAPRFLTRPLAFVVSVGKDATLSSQIVGNPTPQVSWEKDKQPVTAGARFRLAQDGDLYRLKILDLQLSDSGQYVSRARNAIGEAFACLGLQVDAEA
notes: single antibody chain, co-expressed
In the case of B6, the binding result with Heavy chain of D0 is given as “no binding”.

B7: Chain formed by replacement of CL of light chain of B0 with O.20 (other)
light: SSELTQDPAVSVALGQTVRVTCQGDSLRSYYASWYQQKPGQAPVLVIYGKNNRPSGIPDRFSGSSSGNTASLTITGAQAEDEADYYCSSRDSSGNHWVFGGGTELTVLSGAPRFLTRPLAFVVSVGKDATLSSQIVGNPTPQVSWEKDKQPVTAGARFRLAQDGDLYRLKILDLQLSDSGQYVSRARNAIGEAFACLGLQVDAEA
notes: single antibody chain, co-expressed; also called B-L1 of B/U-1 and B/U-2
Take B7: the binding result in [10] and in [11] was “no binding” in each case.

B8: HJ-3-H2 (other)
heavy: EVQLVQSGAEVKKPGSSVKVSCKASGYTFSNYLIEWVRQAPGQGLEWIGVIDPGVGDTNYNENFKGRATLTADKSTSTAYIELSSLRSEDTAVYYCAREDNTGTAFDYWGQGTTVTVSSASTKGPSVFPLAPSSKSTSGGTAALGCLVKDYFPEPVTVSWNSGALTSGVHTFPAVLQSSGLYSLSSVVTVPSSSLGTQTYICNVNHKPSNTKVDKKVEPKSCDKTHTCPPCPAPEAAGGPSVFLFPPKPKDTLMISRTPEVTCVVVDVSHEDPEVKFNWYVDGVEVHNAKTKPREEQYNSTYRVVSVLTVLHQDWLNGKEYKCKVSNKALPAPIEKTISKAKGQPREPQVCTLPPSREEMTKNQVSLSCAVKGFYPSDIAVEWESNGQPENNYKTTPPVLDSDGSFFLVSKLTVDKSRWQQGNVFSCSVMHEALHNHYTQKSLSLSPGKDYKDDDDK
notes: also called chain 2 of HJ-3
Regarding B8, in the experiment with HJ-3-L1, the binding result is recorded as “no binding”.
